Earlier results in article PMC7563123.

Assays:
[1] = target: Aβ1–40 Aβ1-40 (Homo sapiens) (UniProt P05067); experiment: ligand binding assay
[2] = target: Aβ1–42 Aβ1-42 (Homo sapiens) (UniProt P05067); experiment: ligand binding assay
Sequence of Aβ1–42 Aβ1-42 (Homo sapiens) (P05067 1-42): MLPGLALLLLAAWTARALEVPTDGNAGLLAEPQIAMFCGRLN

Sequence of 17β-HSD10 (Q99714 2-261): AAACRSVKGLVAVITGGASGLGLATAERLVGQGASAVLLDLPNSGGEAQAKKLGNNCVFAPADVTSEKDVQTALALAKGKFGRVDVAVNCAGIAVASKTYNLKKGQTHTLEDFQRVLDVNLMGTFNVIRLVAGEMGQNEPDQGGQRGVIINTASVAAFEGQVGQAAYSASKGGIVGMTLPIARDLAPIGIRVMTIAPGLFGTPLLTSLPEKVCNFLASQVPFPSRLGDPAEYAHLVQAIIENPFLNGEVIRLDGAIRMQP
Sequence of Aβ1–40 Aβ1-40 (Homo sapiens) (P05067 1-40): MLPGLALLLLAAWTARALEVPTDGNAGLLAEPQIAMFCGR

17β-HSD10 (from UniProt Q99714)
Kd [1]: 38.4 nM
Kd [2]: 55.8 nM
